Test results published in the DeepSol protein solubility set.

Assay: soluble on expression in E. coli; label from the status in PepcDB or PDB records

Sequence | soluble on expression in E. coli
GEIYTETLQQTYAWTAGTNIPIKIPRNNFIRKIRVQLIGSISNSGTAAVTLPSAPFPYNLVQTFNLSYEGSKTLYSVSGTGLGILMYYTTKGQNPAYPAPGTSVPASGSVNLNVMWEFDLARFPATMVQNIILSILTGQAPSGVSINASFYITITYERVTAQEILSEGGLGADGEMPLATVLPKVIEIPTFNVPASSAPIHVAYLQPGQIYKRQLVYVINSTSGINNTDPTEYELKIVRGVPTDKIKVSWAALQAENQAEYQVAPYSGASAIIDFRKYFNGDLDLTHAPSDSIEYDLALQNQDNVYSLYVSYVLPYYDQLAALPAQVAAIVQQYVARQKRRIKRHHHHHH | soluble
GERQVYRKIRDRASYAFALISVAAVVRMEEGRIATARLAFGGLAHKPWRDPEVEACLEGETPSDDLFDRAADRLLQSARGQGENDFKIPLTRRALTAALREATG | not soluble
GFGPHQRLEKLDSLLSDYDILSLSNIQQHSVRKRDLQTSTHVETLLTFSALKRHFKLYLTSSTERFSQNFKVVVVDGKNESEYTVKWQDFFTGHVVGEPDSRVLAHIRDDDVIIRINTDGAEYNIEPLWRFVNDTKDKRMLVYKSEDIKNVSRLQSPKVCGYLKVDNEELLPKGLVDREPPEGKT | not soluble
GGPTIMVALANPRTESALITLASALAQHEDGRVLATHIATVPDQTALETAAANRDRIDATSESLLDTAKADAEAFDVPIETKTILSHRGIEEVFDAARTNHADTVVMGYGGTQFAGGRAEGTLDELAHDLPCDFLVLDGQDL | not soluble
GGSHMKSYEIALIGNPNVGKSTIFNALTGENVYIGNWPGVTVEKKEGEFEYNGEKFKVVDLPGVYSLTANSIDEIIARDYIINEKPDLVVNIVDATALERNLYLTLQLMEMGANLLLALNKMDLAKSLGIEIDVDKLEKILGVKVVPLSAAKKMGIEELKKAISIAVKDKKTAEIKYPNFEPYIKKIT | soluble
GHDEIGQLATTFNHLTRELEDAQAMTEGERRKLASVIAYMTDGVIATNRNGAIILLNSPALELLNVSRETALEMPITSLLGLQENYTFEDLVEQQDSMLLEIERDDELTVLRVNFSVIQREH | not soluble
GHHHHHHAIAENLYFQSEDPVFTFGLIADVQYADIEDGENYLRTRRRYYRGSADLLRDAVLQWRRERVQCVVQLGDIIDGHNRRRDASDRALDTVMAELDACSVDVHHVWGNHEFYNFSRPSLLSSRLNSAQRTGTDTGSDLIGDDIYAYEFSPAPNFRFVLLDAYDLSVIGREEESEKHTHSWRILTQHNHNLQDLNLPPVSVGLEQRFVKFNGGFSEQQLQWLDAVLTLSDHKQERVLIFSHLPVHPCAADPICLAWNHEAVLSVLRSHQSVLCFIAGHDHDGGRCTDSSGAQHITLEGVIETPPHSHAFATAYLYEDRMVMKGRGRVEDLTITYS | soluble
GHMASNVANDGERPSRVVELTDETFDSIVMDPEKDVFVLYYVPWSRHSVAAMRLWDDLSMSQSQKRNHLTFVAARIDGEKYPDVIERMRVSGFPTMRYYTRIDKQEPFEYSGQRYLSLVDSFVFQNT | soluble
GHMKLKTKTMEWSGNSLKLLDQRKLPFIEEYVECKTHEEVAHAIKEMIVRGAPAIGVAAAFGYVLGLRDYKTGSLTDWMKQVKETLARTRPTAVNLFWALNRMEKVFFENADRENLFEILENEALKMAYEDIEVNKAIGKNGAQLIKDGSTILTHCNAGALATVDYGTALGVIRAAVESGKRIRVFADETRPYLQGARLTAWELMKDGIEVYVITDNMAGWLMKRGLIDAVVVGADRIALNGDTANKIGTYSLAVLAKRNNIPFYVAAPVSTIDPTIRSGEEIPIEERRPEEVTHCGGNRIAPEGVKVLNPAFDVTENTLITAIITEKGVIRPPFEENIKKILEVGS | soluble
GHMLVYNQEELVRFVEEAKQYARYGKVADYIPALGKANPNELSIAIYTPDDEVVSAGDVTVKVTLQSISKIIALALVLIDRGEDEVFHKVGMEPTDYPFHSIAKLEEKPAKPLNPMINAGALVVTSMIQGGSVSERLERLLAFVRRLAGNERISYSDEVARSEFETAFLNRSLCYFLKQHRIIDEDVEELMELYTKQCAIEMTCIDLARIGLVLALDGRDPHSSEPLMPLDVARICKTFMVTCGMYNSSGEFAIKVGIPAKSGVSGGILAAVPGRCGIGVFGPALDDKGNSLTGVKLLERLSKTYSLSIF | soluble
GHMPFEWVKQYDYEDIIYETYNGIAKITINRPEVHNAFRPKTVNEMIDAFTKARDDSNIGVIILTGAGGKAFCSGGDQKVRGHGGYVGEDEIPRLNVLDLQRLIRVIPKPVIAMVAGYAIGGGHVLHVVCDLTIAADNAIFGQTGPKVGSFDGGYGAGYLARIVGHKKAREIWYLCRQYTAQEALEMGLVNKVVPLEQLEEETVKWAQEILEKSPTAIRFLKAAFNADSDGLAGIQQLAGDATLLFYTTEEAKEGMRAFKEKRKPDFSQFPRFP | soluble
GIDPFTKANSEACRDGLRAVMECRNVTHLLQQELTEAQKGFQDVEAQAATCNHTVMALMASLDAEKAQGQKKVEELEGEITTLNHKLQDASAEVERLRRENQVLSVRIADKK | soluble
GIDPFTMVALSLKISIGNVVKTMQFEPSTMVYDACRMIRERIPEALAGPPNDFGLFLSDDDPKKGIWLEAGKALDYYMLRNGDTMEYRKKQRPLKIRMLDGTVKTIMVDDSKTVTDMLMTICARIGITNHDEYSLVRELMEEKKDELNWLDHGRTLREQGVEEHETLLLRRKFFYSDQ | soluble
GILAEAHGTRPDLTDQPLPDADHTWYTDGSSLLQEGQRKAGAAVTTETEVIWAKALPAGTSAQRAELIALTQALKMAEGKKLNVYTDSRYAFATAHLTSEGKEIKNKDEILALLKALFLPKRLSIIHCPGHQKGHSAEARGNRMADQAARKAAITETPDTSTLL | soluble
GIQPVISAQEQETQIVLYGKLVEARQKHANKMDVPPAILATNKILVDMAKMRPTTVENVKRIDGVSEGKAAMLAPLLEVIKHFCQTNSVQTDLFSSTKPQEEQ | soluble
GKEHILVCISPSQGNEKVIRTAARMAEALKGKLTAVFVETPEYEESSIKEQESLRKNLRLAEQLGAQISSVYGEDISQQLAEYANVSQATKIILGRSSKRKSWLKPKLVDKLSEQIDSTDIYIIPDTQP | not soluble
GKKDTQSITLEELAKIIKKCKHVVALTGSGTSAESNIPSFRGSSNSIWSKYDPRIYGTIWGFWKYPEKIWEVIRDISSDYEIEINNGHVALSTLESLGYLKSVVTQNVDGLHEASGNTKVISLHGNVFEAVCCTCNKIVKLNKIMLQKTSHFMHQLPPECPCGGIFKPNIILFGEVVSSDLLKEAEEEIAKCDLLLVIGTSSTVSTATNLCHFACKKKKKIVEINISKTYITNKMSDYHVCAKFSELTKVANILKGSSEKNKKIM | soluble
GKKLEPIEELTIDVPEEFMGVVMEKLGPRKAELVNMTSAVNGYTRLEFKIPSRGLIGFRNEFMTDTKGNGIMNSTLIDYEPFRGDIPERSRGSIVVFETGVSVVYGLYSAQERGRLFVGAGVDVYEGMV | not soluble
GKRDNLEIDRTGLALTAFYARNLAVPERRRVEHPQVLRGKQLFHEAGCPACHVPKFVTHRLKDQPEQSFQLIWPYTDLLLHDMGEGLADGRPEGRATGREWRTAPLWGIGLTEQVSGHANFLHDGRARSILEAVLWHGGEAEAARARVMALPAPDRAALVAFVEDL | not soluble
GLGKFIETCRNTQLAGSSELAAECKTRAQQFVSTKINLDDHIANIDGTLKWQPSNFSQTCYNSAIQGSVLTSTCERTNGGYNTSSIDLNSVIENVDGSLKYE | soluble
GMAQNIYDQPDFFAGYSQLGRSIEGLDGAAEWPALRAMLPEVGGLRIVDLGCGFGWFCRWAHEHGASYVLGLDLSEKMLARARAAGPDTGITYERADLDKLHLPQDSFDLAYSSLALHYVEDVARLFRTVHQALSPGGHFVFSTEHPIYMAPARPGWAIDAEGRRTWPIDRYLVEGPRKTDWLAKGVVKHHRTVGTTLNALIRSGFAIEHVEEFCPTDAQITARPELAEELDRPMFLLVSARR | soluble
GMDQESNATSQDILKQHAAHYESDMGGLPEALVQLAEYAPETFDAYSRMRTTMLKSEADGAKLPLKYKHLILVVLDAIRDEPIGIVNHTRAAMNAGLSVDELIEGILLGIIVYGMPAWGKTGRKAVTFAVEFEKELAGKRT | soluble
